# Reference: US20230151091A1 (NEW YORK UNIVERSITY, published 2023)
# T1: mouse MuSK (mouse, UniProt Q61006 22-494, limits assumed)
# T1 construct: Coated on ELISA plates or on the Biacore chip; also called full length mouse MuSK; mouse MuSK (in house produced in HEK293 cells)
# T1 sequence (looked up): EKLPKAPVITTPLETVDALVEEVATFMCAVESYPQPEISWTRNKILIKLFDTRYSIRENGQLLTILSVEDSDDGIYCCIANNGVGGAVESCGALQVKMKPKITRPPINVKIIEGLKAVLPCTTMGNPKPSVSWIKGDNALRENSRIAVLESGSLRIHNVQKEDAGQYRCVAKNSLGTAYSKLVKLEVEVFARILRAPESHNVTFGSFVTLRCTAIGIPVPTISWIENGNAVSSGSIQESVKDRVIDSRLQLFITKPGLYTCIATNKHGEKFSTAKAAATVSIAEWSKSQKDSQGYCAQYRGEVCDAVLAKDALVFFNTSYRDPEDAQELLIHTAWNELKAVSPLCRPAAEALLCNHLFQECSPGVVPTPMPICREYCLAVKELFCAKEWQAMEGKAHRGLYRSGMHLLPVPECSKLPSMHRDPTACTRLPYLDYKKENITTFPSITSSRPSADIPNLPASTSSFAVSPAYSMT
# T2: rat MuSK (rat, UniProt Q62838 22-494, limits assumed)
# T2 construct: Coated on Biacore chip (200RU) or ELISA plate
# T2 sequence (looked up): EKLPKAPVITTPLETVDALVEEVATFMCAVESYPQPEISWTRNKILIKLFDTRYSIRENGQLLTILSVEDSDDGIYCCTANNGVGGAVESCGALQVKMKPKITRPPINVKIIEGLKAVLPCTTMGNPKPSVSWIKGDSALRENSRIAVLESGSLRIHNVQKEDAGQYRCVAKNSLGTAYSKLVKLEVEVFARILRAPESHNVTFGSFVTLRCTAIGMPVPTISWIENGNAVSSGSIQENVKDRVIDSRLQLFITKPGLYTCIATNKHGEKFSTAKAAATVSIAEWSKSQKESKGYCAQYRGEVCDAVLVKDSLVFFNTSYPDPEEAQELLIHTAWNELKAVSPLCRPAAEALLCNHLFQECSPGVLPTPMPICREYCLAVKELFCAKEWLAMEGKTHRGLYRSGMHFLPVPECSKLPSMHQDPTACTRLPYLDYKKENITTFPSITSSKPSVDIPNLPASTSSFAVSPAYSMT
# T3: mouse MuSK, endogenous (C2C12 myotubes; neuromuscular synapses of mice) (mouse, UniProt Q61006 22-868)
# T3 sequence (looked up): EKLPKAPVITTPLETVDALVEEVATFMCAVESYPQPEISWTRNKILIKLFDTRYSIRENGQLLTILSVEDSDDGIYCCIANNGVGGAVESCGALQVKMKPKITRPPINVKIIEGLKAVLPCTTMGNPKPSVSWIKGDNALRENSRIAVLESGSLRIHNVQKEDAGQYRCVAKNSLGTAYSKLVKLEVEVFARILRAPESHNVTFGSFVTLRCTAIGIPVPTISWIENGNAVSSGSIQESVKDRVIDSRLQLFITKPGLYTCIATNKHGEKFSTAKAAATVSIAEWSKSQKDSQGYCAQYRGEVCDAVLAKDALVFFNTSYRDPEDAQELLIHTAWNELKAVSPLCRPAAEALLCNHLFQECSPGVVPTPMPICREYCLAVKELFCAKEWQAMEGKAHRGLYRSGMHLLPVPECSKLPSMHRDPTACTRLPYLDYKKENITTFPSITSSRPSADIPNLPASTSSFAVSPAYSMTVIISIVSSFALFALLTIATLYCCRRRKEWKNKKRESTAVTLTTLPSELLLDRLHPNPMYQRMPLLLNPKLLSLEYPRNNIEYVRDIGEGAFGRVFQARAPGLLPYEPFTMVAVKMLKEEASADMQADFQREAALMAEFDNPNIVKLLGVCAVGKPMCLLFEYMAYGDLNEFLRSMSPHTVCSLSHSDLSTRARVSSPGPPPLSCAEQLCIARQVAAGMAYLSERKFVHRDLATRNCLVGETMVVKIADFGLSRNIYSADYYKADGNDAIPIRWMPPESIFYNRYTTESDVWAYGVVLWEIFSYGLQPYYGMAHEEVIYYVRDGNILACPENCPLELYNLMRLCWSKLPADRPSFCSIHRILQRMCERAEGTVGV
# B1: 3B2g1m2 (antibody, human IgG1, V domains shown)
# VH: EVQLLESGGGLVQPGGSLRLSCAASGFTFSDYGMSWVRQAPGKGLEWVSAIPGSGGSTYYKESVKGRFTISRDNSKNTLYLQMNSLRAEDTAVYYCAKRSGRIAFGALDAWGQGTLVTVSS
# VL: QTVVTQEPSFSVSPGGTVTLTCGLSSGSVTSSNYPDWYQQTPGQAPRTLIYSTDSRHSGVPDRFSGSILGNKAALTITGAQADDESDYYCGLYMYSGSKNYVFGGGTKLTVL
# notes: human IgG1-LALA backbone; produced in HEK293 cells
# How the values were obtained:
# cynomolgus monkey MuSK [1] = molecular target: T4, cynomolgus monkey MuSK (cynomolgus monkey, UniProt A0A2K5USF6 24-487); assay: Biacore, MuSK on chip, association pH 7.4, dissociation pH 5.5
# T4 sequence (A0A2K5USF6 entry or part of it): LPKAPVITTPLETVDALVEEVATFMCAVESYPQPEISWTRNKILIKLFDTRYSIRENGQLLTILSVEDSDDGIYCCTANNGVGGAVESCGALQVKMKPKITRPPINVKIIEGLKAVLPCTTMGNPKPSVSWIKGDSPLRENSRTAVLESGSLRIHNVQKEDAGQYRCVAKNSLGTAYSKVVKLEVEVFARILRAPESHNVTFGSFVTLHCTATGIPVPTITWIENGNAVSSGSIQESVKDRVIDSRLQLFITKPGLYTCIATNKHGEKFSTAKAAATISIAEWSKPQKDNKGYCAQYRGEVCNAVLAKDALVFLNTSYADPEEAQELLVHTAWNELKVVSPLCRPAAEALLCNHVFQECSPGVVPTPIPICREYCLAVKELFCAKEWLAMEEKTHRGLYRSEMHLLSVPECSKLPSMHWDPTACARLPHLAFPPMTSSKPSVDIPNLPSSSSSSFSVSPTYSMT
# Description: (§1) For affinity determination, a CMS chip was coated with cynomolgus monkey, rat and mouse MuSK (200RU) and 66.7 nM of antibody was applied and kinetic parameters calculated (Table 8). The following conclusions could be drawn: (1) 3B2g1m3 and 3B2g2m3 (m3 variants) show significant drop in affinity for MuSK for all species tested; (2) 3B2g1m2 and 3B2g2m2 (m2 variants) show some drop in affinity for MuSK; (3) 3B2g1m1, 3B2g2m1, 3B2g1m4, 3B2g2m4 (ml and m4 variants) show no drop in affinity for MuSK for all species tested; and (4) for all clones there is no difference between g1 and g2 variants (VL methionine versus serine in CDR3).
# (§2) In order to study pH dependent binding of our antibodies to MuSK, the same Biacore was used as above, but now dissociation was done at pH 5.5 instead of pH 7.4. […] The following conclusions could be drawn for the different variants: (1) 3B2g1m3 and 3B2g2m3 (m3 variants) show significant drop in affinity for MuSK for all species tested; (2) 3B2g1m2 and 3B2g2m2 (m2 variants) show some drop in affinity for MuSK; (3) 3B2g1m1, 3B2g2m1, 3B2g1m4, 3B2g2m4 (m1 and m4 variants) show no drop in affinity for MuSK for all species tested; and (4) for all clones there is no difference between g1 and g2 variants (VL methionine versus serine in CDR3).
# mouse MuSK [2] = molecular target: T1, mouse MuSK; assay: as above
# Description: as §1, §2
# rat MuSK [3] = molecular target: T2, rat MuSK; assay: as above
# Description: as §1, §2
# cynomolgus monkey MuSK [4] = molecular target: T4, cynomolgus monkey MuSK; assay: Biacore, MuSK on chip (200RU), 66.7 nM mAb, dissociation pH 7.4
# Description: as §1
# mouse MuSK [5] = molecular target: T1, mouse MuSK; assay: as above
# Description: as §1
# rat MuSK [6] = molecular target: T2, rat MuSK; assay: as above
# Description: as §1
# mouse MuSK [7] = molecular target: T1, mouse MuSK; assay: Biacore, MuSK on chip, association pH 7.4, dissociation pH 5.5; association at pH 7.4, dissociation at pH 5.5
# Description: as §1, §2
# [8] = molecular target: T3, mouse MuSK, endogenous (C2C12 myotubes; …); assay: cell-based or functional assay
binder,measurement,setting,value
B1,R0,cynomolgus monkey MuSK [1],148 RU
same,koff,cynomolgus monkey MuSK [1],0.0034 s⁻¹
same,kon,cynomolgus monkey MuSK [1],800000 M⁻¹ s⁻¹
same,R0,mouse MuSK [2],152 RU
same,kon,mouse MuSK [2],70000 M⁻¹ s⁻¹
same,R0,rat MuSK [3],136 RU
same,koff,rat MuSK [3],0.0865 s⁻¹
same,kon,rat MuSK [3],40000 M⁻¹ s⁻¹
same,R0,cynomolgus monkey MuSK [4],133 RU
same,koff,cynomolgus monkey MuSK [4],0.00183 s⁻¹
same,kon,cynomolgus monkey MuSK [4],850000 M⁻¹ s⁻¹
same,R0,mouse MuSK [5],155 RU
same,koff,mouse MuSK [5],0.00253 s⁻¹
same,kon,mouse MuSK [5],1.61e+06 M⁻¹ s⁻¹
same,R0,rat MuSK [6],125 RU
same,koff,rat MuSK [6],0.00314 s⁻¹
same,kon,rat MuSK [6],1.45e+06 M⁻¹ s⁻¹
same,koff,mouse MuSK [7],0.00915 s⁻¹
same,MuSK phosphorylation in C2C12 myotubes,[8],~80 % of 1 nM agrin
